Results reported in patent US20120010388A1 (published 2012).

Tests used:
[1] = target: T1, HER2 (UniProt P04626 23-1255, limits assumed); test: cell-based or functional assay
[2] = target: T1, HER2; test: flow cytometry on SKBR3 cells (HER2 and Lewis Y on the cells), PE anti-human Fc detection, half maximal staining intensity
Description: SKBR3 cells are cultured in RPMI1640 containing 10% fetal calf serum an 8 mM glutamine. The cells are harvested by trypsination. A total of 1×10⁵ cells in PBS containing 0.1% BSA are incubated with dilutions of the bispecific molecules or control proteins (anti-Lewis Y antibody IGN311 and anti-HER Fcabs respectively) in the range of 1 mM to 0.1 nM and incubated on ice for 20 min. After removal of excess of bispecific molecules or control proteins cells are incubated for 10 min on ice with phycoerythrin-R-coupled polyclonal anti-human FC antibody (Sigma). Measurements are performed on a FACS analyzer (FACS Calibur).
The half maximal staining intensity (EC50) is reached for molecule no. 1 at around 1 nM and for molecule no. 2 at around 10 nM.

EC50 [2] [nM] | Binder | half maximal (50%) immediate cytotoxicity (EC50), 51Cr release from SKBR3 cells [1] [nM]
~1 | molecule no. 1 (IGN311/Fcab 10-03-6) (bispecific antibody, human IgG1, kappa, IgG: humanized anti-Lewis Y antibody IGN311 whose CH3 domain is replaced by the CH3 of the anti-HER2 Fcab 10-03-6) heavy: EVQLLESGGGLVQPGGSLRLSCAASGFTFSDYYMYWVRQAPEKRLEWVAYISNGGGSSHYVDSVKGRFTISRDNAKNTLYLQMNSLRAEDTALYHCARGMDYGAWFAYWGQGTLVTVSSASTKGPSVFPLAPSSKSTSGGTAALGCLVKDYFPEPVTVSWNSGALTSGVHTFPAVLQSSGLYSLSSVVTVPSSSLGTQTYICNVNHKPSNTKVDKKVEPKSCDKTHTCPPCPAPELLGGPSVFLFPPKPKDTLMISRTPEVTCVVVDVSHEDPEVKFNWYVDGVEVHNAKTKPREEQYNSTYRVVSVLTVLHQDWLNGKEYKCKVSNKALPAPIEKTISKAKGQPREPQVYTLPPSRDEYLHGDVSLTCLVKGFYPSDIAVEWESNGQPENNYKTTPPVLDSDGSFFLYSKLTVARYSPRMLRWAHGNVFSCSVMHEALHNHYTQKSLSLSPGK light: DIVMTQSPLSLPVTPGEPASISCRSSQSIVHSNGNTYLEWYLQKPGQSPQLLISKVSNRFSGVPDRFSGSGSGTDFTLKISRVEAEDVGVYYCFQGSHVPFTFGQGTKLEIKRTVAAPSVFIFPPSDEQLKSGTASVVCLLNNFYPREAKVQWKVDNALQSGNSQESVTEQDSKDSTYSLSSTLTLSKADYEKHKVYACEVTHQGLSSPVTKSFNRGEC | ~1
~10 | molecule no. 2 (IGN311/Fcab H561G3M1G4) (bispecific antibody, human IgG1, kappa, IgG: humanized anti-Lewis Y antibody IGN311 whose CH3 domain is replaced by the CH3 of the anti-HER2 Fcab H561G3M1G4) heavy: EVQLLESGGGLVQPGGSLRLSCAASGFTFSDYYMYWVRQAPEKRLEWVAYISNGGGSSHYVDSVKGRFTISRDNAKNTLYLQMNSLRAEDTALYHCARGMDYGAWFAYWGQGTLVTVSSASTKGPSVFPLAPSSKSTSGGTAALGCLVKDYFPEPVTVSWNSGALTSGVHTFPAVLQSSGLYSLSSVVTVPSSSLGTQTYICNVNHKPSNTKVDKKVEPKSCDKTHTCPPCPAPELLGGPSVFLFPPKPKDTLMISRTPEVTCVVVDVSHEDPEVKFNWYVDGVEVHNAKTKPREEQYNSTYRVVSVLTVLHQDWLNGKEYKCKVSNKALPAPIEKTISKAKGQPREPQVYTLPPSRDEFFTYWVSLTCLVKGFYPSDIAVEWESNGQPENNYKTTPPVLDSDGSFFLYSKLTVDRRRWTAGNVFSCSVMHEALHNHYTQKSLSLSPGK light: DIVMTQSPLSLPVTPGEPASISCRSSQSIVHSNGNTYLEWYLQKPGQSPQLLISKVSNRFSGVPDRFSGSGSGTDFTLKISRVEAEDVGVYYCFQGSHVPFTFGQGTKLEIKRTVAAPSVFIFPPSDEQLKSGTASVVCLLNNFYPREAKVQWKVDNALQSGNSQESVTEQDSKDSTYSLSSTLTLSKADYEKHKVYACEVTHQGLSSPVTKSFNRGEC | ~10
